Test results taken from patent publication US7659376B2, “Antibody that binds glyphosate resistance protein” (priority 2002, dated 2010).

What was measured:
E. coli XL1 Blue MRF′ [1] = test: Growth of GRG-1 or aroA expressing strains in M9 liquid medium with glyphosate, absorbance at 600 nm at 8 hours; type: cell-based; details: for absorbance of the culture at 600 nm: 8 hours, mean of three cultures
From the text: Strains engineered to express either GRG-1 or the wild-type E. coli aroA were engineered as described in the following way. A customized expression vector, pPEH304 Cm was constructed. The essential features of pPEH304 Clare the origin of replication from pBR322, a chloramphenicol acetyl transferase gene (for selection and maintenance of the plasmid), the lacI gene, the Ptac promoter and the rrnB transcriptional terminator. The GRG-1 open reading frame was amplified as described in Example 7. […] The aroA open reading frame was amplified by PCR from E. coli strain XL1 Blue MRF′ (Stratagene). During PCR, restriction sites were added to facilitate cloning into pPEH304 Cm.
The PCR products for GRG-1 and aroA were cloned into the expression vector pPEH304 Cm to yield the plasmids pPEH306 and pPEH307, respectively, and transformed into E. coli XL1 Blue MRF′. Correct clones were identified by standard methods known in the art. The sequence of the GRG-1 and aroA open reading frames in expression clones in pPEH306 and pPEH307 were confirmed by DNA sequencing.
Strains were grown to saturation (overnight) in Luria Broth (Sambrook and Russell, 2001, supra) then diluted 1:100 in M9 liquid medium (recipe) containing 0 to 30 mM glyphosate, and supplemented with 10 g glucose, 10 mg Thiamine-HCl and 25 mg L-Proline. High level transcription from the Ptac promoter was stimulated by including 0.1 mM IPTG in a subset of the cultures (noted as +IPTG in Table 7).
Each culture was grown in a 3 ml tube at 37° C. on a culture wheel. There were three replicate tubes of each treatment. After 8 hours of growth, 310 microliters of culture was withdrawn and placed into a 96-well plate. The absorbance of the culture at 600 nm was measured on a Spectramax 96 well plate reader. The experiment was performed in triplicate, and the values in Table 7 reflect the means of three cultures.

E. coli XL1 Blue MRF′ [2] = test: Growth of GRG-1 or aroA expressing strains in M63 liquid medium with glyphosate, absorbance at 600 nm at 24 hours; type: cell-based; details: M63, +IPTG
Protocol: In addition, these strains engineered to express either GRG-1 or the wild-type E. coli aroA, were tested in another minimal media, M63, with glyphosate concentrations up to 150 mM. 1×M63 was supplemented with 10 g glucose, 10 mg Thiamine-HCl and 25 mg L-Proline. The strains were grown to saturation (overnight) in Luria Broth (Sambrook and Russell, 2001, supra) then washed two times in M63 media (adapted from Current Protocols in Molecular Biology, Greene Publishing and Wiley-Interscience, New York) before being diluted 1:100 in fresh M63 liquid medium containing 0 to 150 mM glyphosate. High level transcription from the Ptac promoter was stimulated by including 0.1 mM IPTG all of the cultures.
Each culture was grown in 2 mls of media in 10 ml tubes at 37° C. in a shaker. At 24 hours, 300 microliters of the culture was withdrawn and placed into a 96-well assay plate. The absorbance of the culture at 600 nm was measured on a Spectromax 96 well plate reader. The values in Table 8 reflect this experiment at 24 hours (NT not tested).

[3] = +IPTG (0.1 mM), 0 mM glyphosate
[4] = +IPTG (0.1 mM), 5 mM glyphosate
[5] = +IPTG (0.1 mM), 10 mM glyphosate
[6] = +IPTG (0.1 mM), 20 mM glyphosate
[7] = +IPTG (0.1 mM), 30 mM glyphosate
[8] = glyphosate concentration 0, 24 hours
[9] = glyphosate concentration 5 (mM), 24 hours
[10] = glyphosate concentration 30 (mM), 24 hours
[11] = glyphosate concentration 60 (mM), 24 hours

B1: aroA: wild-type E. coli aroA (EPSP synthase), expressed from plasmid pPEH307 (protein, UniProt P0A6D3 1-427, looked up)
3-phosphoshikimate …: MESLTLQPIARVDGTINLPGSKSVSNRALLLAALAHGKTVLTNLLDSDDVRHMLNALTALGVSYTLSADRTRCEIIGNGGPLHAEGALELFLGNAGTAMRPLAAALCLGSNDIVLTGEPRMKERPIGHLVDALRLGGAKITYLEQENYPPLRLQGGFTGGNVDVDGSVSSQFLTALLMTAPLAPEDTVIRIKGDLVSKPYIDITLNLMKTFGVEIENQHYQQFVVKGGQSYQSPGTYLVEGDASSASYFLAAAAIKGGTVKVTGIGRNSMQGDIRFADVLEKMGATICWGDDYISCTRGELNAIDMDMNHIPDAAMTIATAALFAKGTTTLRNIYNWRVKETDRLFAMATELRKVGAEVEEGHDYIRITPPEKLNFAEIATYNDHRMAMCFSLVALSDTPVTILDPKCTAKTFPDYFEQLARISQAA
For B1, the “absorbance of the culture at 600 nm” value (E. coli XL1 Blue MRF′ [1]; [3]) was 0.075, the “absorbance of the culture at 600 nm” value (E. coli XL1 Blue MRF′ [1]; [4]) was 0.068 and the “absorbance of the culture at 600 nm” value (E. coli XL1 Blue MRF′ [1]; [5]) was 0.063. The “absorbance of the culture at 600 nm” value (E. coli XL1 Blue MRF′ [1]; [6]) was 0.056, the “absorbance of the culture at 600 nm” value (E. coli XL1 Blue MRF′ [1]; [7]) was 0.052 and the “absorbance of the culture at 600 nm” value (E. coli XL1 Blue MRF′ [1]; no IPTG, 0 mM glyphosate) was 0.095. The “absorbance of the culture at 600 nm” value (E. coli XL1 Blue MRF′ [1]; no IPTG, 5 mM glyphosate) was 0.048, the “absorbance of the culture at 600 nm” value (E. coli XL1 Blue MRF′ [1]; no IPTG, 10 mM glyphosate) was 0.046 and the “absorbance of the culture at 600 nm” value (E. coli XL1 Blue MRF′ [1]; no IPTG, 20 mM glyphosate) was 0.047. For the same molecule, the “absorbance of the culture at 600 nm” value (E. coli XL1 Blue MRF′ [1]; no IPTG, 30 mM glyphosate) was 0.048, the “glyphosate concentrations that inhibit growth of expressing cells” value (E. coli XL1 Blue MRF′ [1]; summary of Table 7) was at least 10 mM and the “absorbance of the culture at 600 nm” value (E. coli XL1 Blue MRF′ [2]; [8]) was 0.5982. The “absorbance of the culture at 600 nm” value (E. coli XL1 Blue MRF′ [2]; [9]) was 0.1209, the “absorbance of the culture at 600 nm” value (E. coli XL1 Blue MRF′ [2]; [10]) was 0.0276 and the “absorbance of the culture at 600 nm” value (E. coli XL1 Blue MRF′ [2]; [11]) was 0.0298.

B2: GRG-1: glyphosate resistance protein (SEQ ID NO:2), homologous to EPSP synthases; expressed in E. coli from plasmid pPEH306 (protein)
chain: MKVTIQPGDLTGILQSPASKSSMQRACAAALVAKGISEIINPGHSNDDKAARDIVSRLGARLEDQPDGSLQITSEGVKPVAPFIDCGESGLSIRMFTPIVALSKEEVTIKGSGSLVTRPMDFFDEILPHLGVKVKSNQGKLPLVIQGPLKPADVTVDGSLSSQFLTGLLLAYAAADASDVAIKVTNLKSRPYIDLTLDVMKRFGLKTPENRNYEEFYFKAGNVYDETKMQRYTVEGDWSGGAFLLVAGAIAGPITVRGLDIASTQADKAIVQALMSANAGIAIDAKEIKLHPADLNAFEFDATDCPDLFPPLVALASYCKGETKIKGVSRLAHKESDRGLTLQDEFGKMGVEIHLEGDLMRVIGGKGVKGAEVSSRHDHRIAMACAVAALKAVGETTIEHAEAVNKSYPDFYSDLKQLGGVVSLNHQFNFS
modifications: Enterobacteriaceae
notes: expressed in E. coli from plasmid pPEH306
With B2 the “absorbance of the culture at 600 nm” value (E. coli XL1 Blue MRF′ [1]; [3]) was 0.100, the “absorbance of the culture at 600 nm” value (E. coli XL1 Blue MRF′ [1]; [4]) was 0.104 and the “absorbance of the culture at 600 nm” value (E. coli XL1 Blue MRF′ [1]; [5]) was 0.117. For the same molecule, the “absorbance of the culture at 600 nm” value (E. coli XL1 Blue MRF′ [1]; [6]) was 0.125, the “absorbance of the culture at 600 nm” value (E. coli XL1 Blue MRF′ [1]; [7]) was 0.135 and the “absorbance of the culture at 600 nm” value (E. coli XL1 Blue MRF′ [1]; no IPTG, 0 mM glyphosate) was 0.092. For the same molecule, the “absorbance of the culture at 600 nm” value (E. coli XL1 Blue MRF′ [1]; no IPTG, 5 mM glyphosate) was 0.102, the “absorbance of the culture at 600 nm” value (E. coli XL1 Blue MRF′ [1]; no IPTG, 10 mM glyphosate) was 0.110 and the “absorbance of the culture at 600 nm” value (E. coli XL1 Blue MRF′ [1]; no IPTG, 20 mM glyphosate) was 0.112. The “absorbance of the culture at 600 nm” value (E. coli XL1 Blue MRF′ [1]; no IPTG, 30 mM glyphosate) was 0.104, the “glyphosate concentration in whose presence survival and growth of E. coli is allowed” value (E. coli XL1 Blue MRF′ [1]; summary of Table 7) was 30 mM and the “absorbance of the culture at 600 nm” value (E. coli XL1 Blue MRF′ [2]; [8]) was 0.4943. For the same molecule, the “absorbance of the culture at 600 nm” value (E. coli XL1 Blue MRF′ [2]; [9]) was 0.7192, the “absorbance of the culture at 600 nm” value (E. coli XL1 Blue MRF′ [2]; [10]) was 0.7884 and the “absorbance of the culture at 600 nm” value (E. coli XL1 Blue MRF′ [2]; [11]) was 0.789. The “absorbance of the culture at 600 nm” value (E. coli XL1 Blue MRF′ [2]; glyphosate concentration 150 (mM), 24 hours) was 0.951.
